Data set [1] concerns the target T1, TRBP dsRBD12 Cy3B-CF660R (doubly labeled) (human, UniProt Q15633 16-158+=T+159-227, C73A;M100C;C196V;internal_change).
T1 sequence: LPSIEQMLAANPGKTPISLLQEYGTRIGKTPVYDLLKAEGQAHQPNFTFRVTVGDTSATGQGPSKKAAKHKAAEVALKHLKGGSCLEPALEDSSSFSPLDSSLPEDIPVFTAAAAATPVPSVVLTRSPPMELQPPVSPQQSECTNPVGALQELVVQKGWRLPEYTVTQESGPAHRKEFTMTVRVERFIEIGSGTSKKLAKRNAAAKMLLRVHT
As to the kind of experiment: single-molecule FRET titration; 125 mM KCl, 20 mM Tris-HCl pH 7.4, 295 K; smFRET: 20 mM Tris-HCl pH 7.4, 125 mM KCl (affinity) or 25 mM KCl (orientation), 15 nM BSA, 0.001% Tween-20, 295 K; NMR buffer not in material. The conditions noted are these: protein: recombinant; tags: Cy3B and CF660R at C100 and C158; pET47b(+)-based vector; 19 bp, 3' overhang 2 nt (UU) on both strands.

For data set [2], the target named is T2, TRBP dsRBD12 M100C/C158S (human, UniProt Q15633 16-158+=T+159-227, C73A;M100C;C158S;C196V;internal_change).
T2 sequence: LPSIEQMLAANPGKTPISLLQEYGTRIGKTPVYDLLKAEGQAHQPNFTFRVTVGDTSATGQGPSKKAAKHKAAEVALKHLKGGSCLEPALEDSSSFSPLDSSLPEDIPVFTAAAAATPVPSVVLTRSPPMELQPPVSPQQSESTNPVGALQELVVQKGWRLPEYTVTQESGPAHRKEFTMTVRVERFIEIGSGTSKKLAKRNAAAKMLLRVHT
Put plainly: single-molecule FRET; 25 mM KCl; two configurations; smFRET: 20 mM Tris-HCl pH 7.4, 125 mM KCl (affinity) or 25 mM KCl (orientation), 15 nM BSA, 0.001% Tween-20, 295 K; NMR buffer not in material. The conditions noted are these: protein: recombinant; tags: CF660R at C100; label: Cy3B at 3' end of EL86down; 19 bp, 3' overhang 2 nt (UU) on both strands.

Data set [3] deals with T3, TRBP dsRBD12 M100S (human, UniProt Q15633 16-158+=T+159-227, C73A;M100S;C196V;internal_change).
T3 sequence: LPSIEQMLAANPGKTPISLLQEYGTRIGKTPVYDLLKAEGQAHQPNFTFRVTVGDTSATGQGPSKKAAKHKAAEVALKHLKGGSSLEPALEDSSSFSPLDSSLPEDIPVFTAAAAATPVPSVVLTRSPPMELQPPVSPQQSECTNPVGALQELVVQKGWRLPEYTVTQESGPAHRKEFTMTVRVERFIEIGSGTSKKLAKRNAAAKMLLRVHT
The description is as above. Conditions: protein: recombinant; tags: CF660R at C158; label: Cy3B at 3' end of EL86down; 19 bp, 3' overhang 2 nt (UU) on both strands.

The Kd is the free concentration of one partner at which half of the binding sites on the other are occupied at equilibrium, for simple one-to-one binding.

B1: EL86 siRNA (dsRNA)
RNA 1: UUAAUUAUCUAUUCCGUACUU
RNA 2: GUACGGAAUAGAUAAUUAAUU
On to B1, for which the Kd in data set [1] worked out at 210 ± 30 pM.

B2: EL86 siRNA, Cy3B-labeled (dsRNA)
RNA 1: UUAAUUAUCUAUUCCGUACUU
RNA 2: GUACGGAAUAGAUAAUUAAUU
modifications: 3' biotin on EL86up; 3' amino modifier on EL86down
Consider B2, for which the binding result in data set [2] and in data set [3] was “binds” in each case.

(Values after article PMC5852647, “Structural basis of siRNA recognition by TRBP double‐stranded RNA binding domains”.)
